Experimental data taken from the supplement of paper PMC10567573.

B1: RTN1 (parent)
chain: VVAYLALAALSATISFRIYKSVLQ
B2: STX11 (parent)
chain: FQRAMHDYNQAEMKQRDNCKIRIQ

Variants of: B1
Assay: protein stability index of a GFP-peptide fusion (GPS, HEK-293T) (PSI 1-6); higher = more stable
Settings: c terminus: a fixed tail appended
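Further: lentivirally expressed fusions sorted by FACS into six bins by GFP to DsRed ratio, PSI derived from sequencing read proportions per bin multiplied by bin number.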

Variant	protein stability index
VVAYLALAALVATISFRIYKSVLQ [S11V]	1.41
VVAYLALAALMATISFRIYKSVLQ [S11M]	2.45
VVAYLALAALHATISFRIYKSVLQ [S11H]	2.33
VVAYLALAALRATISFRIYKSVLQ [S11R]	2.44
VVAYLALAALKATISFRIYKSVLQ [S11K]	2.4
VVAYLALAALYATISFRIYKSVLQ [S11Y]	2.33
VVAYLALAALWATISFRIYKSVLQ [S11W]	2.55
VVAYLALAALTATISFRIYKSVLQ [S11T]	2.81
VVAYLALAALNATISFRIYKSVLQ [S11N]	3.04
VVAYLALAALPATISFRIYKSVLQ [S11P]	2.49
VVAYLALAALSATISFRIYKQVLQ [S21Q]	2.56
VVAYLALAALSATISFRIYKWVLQ [S21W]	2.52
VVAYLALAALSATISFRIYKNVLQ [S21N]	1.52
VVAYLALAALSATISFRIYKKVLQ [S21K]	1.45
VVAYLALAALSATISFRIYKEVLQ [S21E]	2.38
VVAYLALAALSATISFRIYKTVLQ [S21T]	3.04
VVAYLALAALSATISFRIYKVVLQ [S21V]	4.53
VVAYLALAALSATISFRIYKRVLQ [S21R]	1.99
VVAYLALAALSATISFRIYKAVLQ [S21A]	1.89
VVAYLALAALSATISFRIYKMVLQ [S21M]	2.42
VVAYLALAALSATISFRIYKIVLQ [S21I]	2.91
VVAYLALAALSATISFRIYKPVLQ [S21P]	1.65
VVAYLALAALSATISFRIYKFVLQ [S21F]	2.18
VVAYLALAALSATISFRIYKHVLQ [S21H]	1.9
VVAYLALAALSATISFRIYKSVKQ [L23K]	2.66

Variant	protein stability index
VVAYLALAALSATISFRIYKSVAQ [L23A]	2.28
VVAYLALAALSATISFRIYKSVQQ [L23Q]	1.9
VVAYLALAALSATISFRIYKSVVQ [L23V]	2.5
VVAYLALAALSATISFRIYKSVSQ [L23S]	1.66
VVAYLALAALSATISFRIYKSVPQ [L23P]	2.48
VVAYLALAALSATISFRIYKSVRQ [L23R]	2.55
VVAYLALAALSATISFRIYKSVHQ [L23H]	3.01
VVAYLALAALSATISFRIYKSVCQ [L23C]	3.13
VVAYLALAALSATISFRIYKSVMQ [L23M]	3.52
VVAYLALAALSATISFRIYKSVYQ [L23Y]	3.05
VVAYLALAALSATISFRIYKSVIQ [L23I]	3.31
VVAYLALAALSATISFRIYKSVEQ [L23E]	2.65
VVAYLALAALSLTISFRIYKSVLQ [A12L]	3.9
VVAYLALAALSWTISFRIYKSVLQ [A12W]	3.1
VVAYLALAALSYTISFRIYKSVLQ [A12Y]	2.39
VVAYLALAALSTTISFRIYKSVLQ [A12T]	1.95
VVAYLALAALSETISFRIYKSVLQ [A12E]	2.05
VVAYLALAALSQTISFRIYKSVLQ [A12Q]	2.67
VVAYLALAALSHTISFRIYKSVLQ [A12H]	3.12
VVAYLALAALSFTISFRIYKSVLQ [A12F]	2.85
VVAYLALAALSCTISFRIYKSVLQ [A12C]	2.45
VVAYLALAALSVTISFRIYKSVLQ [A12V]	3.42
VVAYLALAALSATISFDIYKSVLQ [R17D]	2.83
VVAYLALAALSATISFIIYKSVLQ [R17I]	2.21
VVAYLALAALSATISFHIYKSVLQ [R17H]	2.7

Variant	protein stability index
VVAYLALAALSATISFMIYKSVLQ [R17M]	2.83
VVAYLALAALSATISFFIYKSVLQ [R17F]	1.94
VVAYLALAALSATISFPIYKSVLQ [R17P]	2.35
VVAYLALAALSATISFYIYKSVLQ [R17Y]	3.59
VVAYLALAALSATISFNIYKSVLQ [R17N]	4.14
VVAYLALAALSATISFKIYKSVLQ [R17K]	2.03
VVAYLALAALSATISFRIYWSVLQ [K20W]	2.77
VVAYLALAALSATISFRIYMSVLQ [K20M]	3.61
VVAYLALAALSATISFRIYDSVLQ [K20D]	2.89
VVAYLALAALSATISFRIYASVLQ [K20A]	3.28
VVAYLALAALSATISFRIYRSVLQ [K20R]	4.17
VVAYLALAALSATISFRIYTSVLQ [K20T]	3.84
VVAYLALAALSATISFRIYHSVLQ [K20H]	3.98
VVAYLALAALSATISFRIYNSVLQ [K20N]	2.27
VVAYLALAALSATISFRIYPSVLQ [K20P]	2.58
VVAYLALAALSATISFRIYSSVLQ [K20S]	2.68
VVAYLALAALSATISFRIYGSVLQ [K20G]	3.57
VVAYLALAALSATISFRIYESVLQ [K20E]	5.17
VVAYLALAALSATISFRIYKSILQ [V22I]	1.83
VVAYLALAALSATISFRIYKSWLQ [V22W]	4.26
VVAYLALAALSATISFRIYKSRLQ [V22R]	2.44
VVAYLALAALSATISFRIYKSHLQ [V22H]	2.31
VVAYLALAALSATISFRIYKSTLQ [V22T]	2.38
VVAYLALAALSATISFRIYKSYLQ [V22Y]	4.13
VVAYLALAALSATISFRIYKSCLQ [V22C]	3.58

Variant	protein stability index
VVAYLALAALSATISFRIYKSSLQ [V22S]	2.57
VVAYLALAALSATISFRIYKSALQ [V22A]	3.36
VVAYLALAALSATISFRIYKSDLQ [V22D]	3.13
VVAYLALAALSATISFRIYKSKLQ [V22K]	4.89
VVAYLALAALSATISFRIYKSFLQ [V22F]	3.99
VVAYLALAALSATISFRIYKSQLQ [V22Q]	2.7
VVAYLALAALSATISFRIYKSLLQ [V22L]	2.33
VVAYLALAALSATISFRIYKSELQ [V22E]	3.42
VVAYLALAALSAHISFRIYKSVLQ [T13H]	2.61
VVAYLALAALSAKISFRIYKSVLQ [T13K]	2.77
VVAYLALAALSAEISFRIYKSVLQ [T13E]	3.33
VVAYLALAALSAVISFRIYKSVLQ [T13V]	2.39
VVAYLALAALSAAISFRIYKSVLQ [T13A]	1.2
VVAYLALAALSAGISFRIYKSVLQ [T13G]	1.32
VVAYLALAALSAYISFRIYKSVLQ [T13Y]	1.86
VVAYLALAALSANISFRIYKSVLQ [T13N]	2.54
VVAYLALAALSACISFRIYKSVLQ [T13C]	1.87
VVAYLALAALSARISFRIYKSVLQ [T13R]	2.82
VVAYLALAALSAIISFRIYKSVLQ [T13I]	2.86
VVAYLALAALSAFISFRIYKSVLQ [T13F]	2.43
VVAYLALAALSAPISFRIYKSVLQ [T13P]	2.21
VVAYLALAALSAMISFRIYKSVLQ [T13M]	1.58
VVAYLALAALSAWISFRIYKSVLQ [T13W]	2.05
VVAYLALAALSATISDRIYKSVLQ [F16D]	2.94
VVAYLALAALSATISLRIYKSVLQ [F16L]	2.57

Variant	protein stability index
VVAYLALAALSATISYRIYKSVLQ [F16Y]	3.52
VVAYLALAALSATISSRIYKSVLQ [F16S]	2.99
VVAYLALAALSATISARIYKSVLQ [F16A]	2.88
VVAYLALAALSATISQRIYKSVLQ [F16Q]	3
VVAYLALAALSATISHRIYKSVLQ [F16H]	3.82
VVAYLALAALSATISKRIYKSVLQ [F16K]	1.86
VVAYLALAALSATISPRIYKSVLQ [F16P]	4.4
VVAYLALAALSATISVRIYKSVLQ [F16V]	2.15
VVAYLALAALSATISERIYKSVLQ [F16E]	1.76
VVAYLALAALSATISNRIYKSVLQ [F16N]	2.28
VVAYLALAALSATISFRIQKSVLQ [Y19Q]	3.66
VVAYLALAALSATISFRILKSVLQ [Y19L]	1.46
VVAYLALAALSATISFRIWKSVLQ [Y19W]	1.49
VVAYLALAALSATISFRISKSVLQ [Y19S]	2.1
VVAYLALAALSATISFRIFKSVLQ [Y19F]	1.46
VVAYLALAALSATISFRIPKSVLQ [Y19P]	2.41
VVAYLALAALSATISFRIAKSVLQ [Y19A]	2.51
VVAYLALAALSATISFRIIKSVLQ [Y19I]	2.51
VVAYLALAALSATISFRIMKSVLQ [Y19M]	2.3
VVAYLALAALSATISFRIEKSVLQ [Y19E]	4.55
VVAYLALAALSATISFRIVKSVLQ [Y19V]	2.12
VVAYLALAALSATISFRICKSVLQ [Y19C]	2.46
VVAYLALAALSATISFRIHKSVLQ [Y19H]	2.75
VVAYLALAALSATISFRIRKSVLQ [Y19R]	3.4
VVAYLALAALSATIQFRIYKSVLQ [S15Q]	2.82

Variant	protein stability index
VVAYLALAALSATIFFRIYKSVLQ [S15F]	1.27
VVAYLALAALSATIPFRIYKSVLQ [S15P]	2.71
VVAYLALAALSATICFRIYKSVLQ [S15C]	2.23
VVAYLALAALSATIHFRIYKSVLQ [S15H]	3.38
VVAYLALAALSATIAFRIYKSVLQ [S15A]	1.01
VVAYLALAALSATIVFRIYKSVLQ [S15V]	4.48
VVAYLALAALSATIGFRIYKSVLQ [S15G]	2.29
VVAYLALAALSATITFRIYKSVLQ [S15T]	2.56
VVAYLALAALSATIIFRIYKSVLQ [S15I]	1.84
VVAYLALAALSATIMFRIYKSVLQ [S15M]	1.21
VVAYLALAALSATISFRWYKSVLQ [I18W]	4.75
VVAYLALAALSATISFRYYKSVLQ [I18Y]	3.91
VVAYLALAALSATISFRPYKSVLQ [I18P]	3.69
VVAYLALAALSATISFREYKSVLQ [I18E]	3.04
VVAYLALAALSATISFRVYKSVLQ [I18V]	4.01
VVAYLALAALSATISFRGYKSVLQ [I18G]	2.69
VVAYLALAALSATISFRNYKSVLQ [I18N]	3.51
VVAYLALAALSATISFRSYKSVLQ [I18S]	2.78
VVAYLALAALSATISFRTYKSVLQ [I18T]	1.35
VVAYLALAALSATISFRAYKSVLQ [I18A]	1.05
VVAYLALAALSATISFRRYKSVLQ [I18R]	2.8
VVAYLALAALSATISFRFYKSVLQ [I18F]	2.06
VVAYLALAALSATISFRKYKSVLQ [I18K]	4.46
VVAYLALAALSATISFRLYKSVLQ [I18L]	1.99
VVAYLALAALSATISFRIYKSVLN [Q24N]	3.38

Variant	protein stability index
VVAYLALAALSATISFRIYKSVLK [Q24K]	2.45
VVAYLALAALSATISFRIYKSVLL [Q24L]	2.2
VVAYLALAALSATISFRIYKSVLT [Q24T]	2.08
VVAYLALAALSATISFRIYKSVLD [Q24D]	3.01
VVAYLALAALSATISFRIYKSVLP [Q24P]	2.84
VVAYLALAALSATISFRIYKSVLY [Q24Y]	3.94
VVAYLALAALSATISFRIYKSVLC [Q24C]	2.5
VVAYLALAALSATISFRIYKSVLS [Q24S]	2.03
VVAYLALAALSATISFRIYKSVLG [Q24G]	2.92
VVAYLALAALSATISFRIYKSVLI [Q24I]	1.85
VVAYLALAALSATISFRIYKSVLR [Q24R]	3.71
VVAYLALAALSATISFRIYKSVLV [Q24V]	3.35
VVAYLALAALSATRSFRIYKSVLQ [I14R]	3.01
VVAYLALAALSATKSFRIYKSVLQ [I14K]	1.96
VVAYLALAALSATNSFRIYKSVLQ [I14N]	1.02
VVAYLALAALSATGSFRIYKSVLQ [I14G]	2.49
VVAYLALAALSATESFRIYKSVLQ [I14E]	3.06
VVAYLALAALSATLSFRIYKSVLQ [I14L]	1.7
VVAYLALAALSATTSFRIYKSVLQ [I14T]	2.12
VVAYLALAALSATMSFRIYKSVLQ [I14M]	3.4
VVAYLALAALSATHSFRIYKSVLQ [I14H]	2.72
VVAYLALAALSATASFRIYKSVLQ [I14A]	2.8

Variants of: B2
Assay: as above
Settings: c terminus: a fixed tail appended

Variant	protein stability index
TQRAMHDYNQAEMKQRDNCKIRIQ [F1T]	4.11
DQRAMHDYNQAEMKQRDNCKIRIQ [F1D]	4.15
GQRAMHDYNQAEMKQRDNCKIRIQ [F1G]	3.88
EQRAMHDYNQAEMKQRDNCKIRIQ [F1E]	4.17
LQRAMHDYNQAEMKQRDNCKIRIQ [F1L]	3.29
RQRAMHDYNQAEMKQRDNCKIRIQ [F1R]	3.28
MQRAMHDYNQAEMKQRDNCKIRIQ [F1M]	3.82
IQRAMHDYNQAEMKQRDNCKIRIQ [F1I]	3.46
SQRAMHDYNQAEMKQRDNCKIRIQ [F1S]	4.1
QQRAMHDYNQAEMKQRDNCKIRIQ [F1Q]	4.13
PQRAMHDYNQAEMKQRDNCKIRIQ [F1P]	4.17
HQRAMHDYNQAEMKQRDNCKIRIQ [F1H]	4.18
NQRAMHDYNQAEMKQRDNCKIRIQ [F1N]	4.4
AQRAMHDYNQAEMKQRDNCKIRIQ [F1A]	3.87
KQRAMHDYNQAEMKQRDNCKIRIQ [F1K]	3.98
CQRAMHDYNQAEMKQRDNCKIRIQ [F1C]	3.56
